The values that follow come from patent US20100215651A1 (GLENMARK PHARMACEUTICALS S A, published 2010).

For experiment [1], the target named is T1, human CD19 (human, UniProt P15391 20-556).
T1 construct: CD19 as expressed on Raji, NALM-6 and SU-DHL-6 cells; also called CD19 antigen; B-cell surface antigen B4
T1 sequence: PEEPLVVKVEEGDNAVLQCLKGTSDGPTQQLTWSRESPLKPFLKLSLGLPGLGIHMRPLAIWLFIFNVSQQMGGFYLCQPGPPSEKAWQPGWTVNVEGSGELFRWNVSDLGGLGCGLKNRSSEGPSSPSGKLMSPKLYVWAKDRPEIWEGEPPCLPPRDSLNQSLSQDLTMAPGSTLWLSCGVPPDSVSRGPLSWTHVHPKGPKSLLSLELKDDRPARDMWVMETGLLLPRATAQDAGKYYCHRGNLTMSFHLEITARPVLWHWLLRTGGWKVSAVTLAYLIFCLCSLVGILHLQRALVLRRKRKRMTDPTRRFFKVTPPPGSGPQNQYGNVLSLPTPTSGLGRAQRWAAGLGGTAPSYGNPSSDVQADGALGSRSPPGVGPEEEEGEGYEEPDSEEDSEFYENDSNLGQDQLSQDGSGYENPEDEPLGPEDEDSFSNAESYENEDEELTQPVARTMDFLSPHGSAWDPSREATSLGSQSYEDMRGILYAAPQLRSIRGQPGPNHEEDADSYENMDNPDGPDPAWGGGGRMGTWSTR
As to the kind of experiment: flow cytometry, Raji cells, MPF vs chimeric FMC63. How it is done: (§1) Binding of the CD19 humanized monoclonal antibodies by flow cytometry to Raji tumor cells (human Burkitt lymphoma, DSMZ ACC319), NALM-6 (human B cell precursor leukemia, DSMZ ACC128) and SU-DHL-6 (human B cell lymphoma, DSMZ ACC572) (all cell lines from DSMZ Braunschweig, Deutschland) was assessed. Cells were incubated with serial dilutions of each humanized monoclonal antibody. An irrelevant human IgG1 was used as a negative control. The cells were washed and detected by a phycoerythrin-labeled (PE) anti-human secondary antibody (eBioscience, CA, USA) and analyzed by flow cytometry. […] From MFI versus antibody concentration curves, Mid-Point Fluorescence (MPF) value for each anti-CD19 humanized antibody was calculated using the software GraphPad Prism 5 (CA, USA).

The target in experiment [2] is T1, human CD19. As to the kind of experiment: flow cytometry, Raji cells, MPF vs chimeric FMC63. On the procedure: as §1
This is another data set of the same source.

The target of experiment [3] is T1, human CD19. As to the kind of experiment: flow cytometry, Raji cells, MPF vs chimeric FMC63. How it is done:
as §1
The source holds these as a separate data set.

Experiment [4] addresses T1, human CD19. As to the kind of experiment: competition with 0.2 nM Eu3+-labelled chimeric FMC63 on Raji cells. On the procedure:
To that aim, 100 μl volumes of Raji cells in RPMI-1640 medium (Chemie Brunschwig AG, PAA, Basel, Switzerland) supplemented with 10% fetal bovine serum (FBS, Chemie Brunschwig AG, PAA, Basel, Switzerland), 2 mM ultraglutamine 1 (Lonza, Verviers, Belgium) and 1% penicillin/streptomycin (Chemie Brunschwig AG, PAA, Basel, Switzerland), prepared at concentration of 1×10⁶ cells/ml were seeded in a U-bottomed 96-well plate. […] The antibody dilutions were cooled down to 4° C. before 100 μl was taken and added on the Raji cells. […] Cells were incubated with the antibodies for 15 minutes on ice. After reaching equilibrium, the cells were centrifuged at 1300 RPM for 2 minutes and supernatant was discarded. Cell pellets were washed twice with 200 μl of cold binding buffer PBS-2.5% FBS-0.05% NaN₃, and resuspended into 100 μl of Delfia solution. Cell bound Eu³+-FMC63 was measured with time resolved fluorescence as described above. The amount of Eu³+-FMC63 (fmole) per well was determined and plotted versus the total amount of unlabelled antibody.

For experiment [5], the target named is T1, human CD19. The experiment in a line: flow cytometry, NALM-6 cells, MPF vs chimeric FMC63. On the procedure:
as §1

In experiment [6] the target is T1, human CD19. The experiment in a line: flow cytometry on Raji cells, PE-labelled anti-human secondary antibody, MFI against antibody concentration. How it is done:
These immunoglobulins were assessed for antigen-binding affinity by half-maximal binding assays on B-cell lymphoma cell-lines (FACS) and compared to a chimeric version of FMC63 (this was to standardized level of staining from the anti-human Fc PE-labeled detection-antibody, as described in Example 2).
as §1

The target in experiment [7] is T1, human CD19. As to the kind of experiment: binding to Raji cells.
Experiment [8] has as its target T1, human CD19. The experiment in a line: flow cytometry on Raji cells. How it is done: as §1

B1: VH16 R94K VL43 N92A (antibody, human IgG1)
heavy: not shown
VL: DIVMTQTPSSLSASVGDRVTITCRASQDISKYLNWYQQKPGKAPKLLIYHTSRLHSGVPSRFSGSGSGTDFTLTISSLQPEDFATYYCQQGATLPYTFGPGTKVDIKRTVAA
notes: Full-length human IgG1/kappa; substitutions in Kabat numbering
On to B1, for which the “relative MPF (% of chimeric FMC63)” value with human CD19 [1] worked out at 25.9%.

B2: VH16 R94K VL43 T93A (antibody, human IgG1, V domains shown)
VH: QVQLVQSGGGVVQPGRSLRLSCAASGVSLPDYGVSWVRQAPGKGLEWVAVIWGSETTYYNSALKSRFTISRDNSKNTLYLQMNSLRAEDTAVYYCAKHYYYGGSYAMDYWGQGTLVTVSS
VL: DIVMTQTPSSLSASVGDRVTITCRASQDISKYLNWYQQKPGKAPKLLIYHTSRLHSGVPSRFSGSGSGTDFTLTISSLQPEDFATYYCQQGNALPYTFGPGTKVDIKR
notes: as for B1
As to B2, the “relative MPF (% of chimeric FMC63)” value in the experiment with human CD19 [1] amounted to 34.1%.

B3: VH16-R94K/VL43-V3Q/T7S (antibody, human IgG1)
heavy: not shown
VL: DIQMTQSPSSLSASVGDRVTITCRASQDISKYLNWYQQKPGKAPKLLIYHTSRLHSGVPSRFSGSGSGTDFTLTISSLQPEDFATYYCQQGNTLPYTFGPGTKVDIKRTVAA
notes: as for B1
As to B3, in the experiment with human CD19 [2], the “relative MPF (% of chimeric FMC63)” value worked out at 27.8%.

B4: VH16 R94K VL43 T93V (antibody, human IgG1, V domains shown)
VH: QVQLVQSGGGVVQPGRSLRLSCAASGVSLPDYGVSWVRQAPGKGLEWVAVIWGSETTYYNSALKSRFTISRDNSKNTLYLQMNSLRAEDTAVYYCAKHYYYGGSYAMDYWGQGTLVTVSS
VL: DIVMTQTPSSLSASVGDRVTITCRASQDISKYLNWYQQKPGKAPKLLIYHTSRLHSGVPSRFSGSGSGTDFTLTISSLQPEDFATYYCQQGNVLPYTFGPGTKVDIKR
notes: Full-length human IgG1/kappa; substitutions in Kabat numbering; also called VK16 R94K VL43 T93V
As for B4, the “relative MPF (% of chimeric FMC63)” value with human CD19 [1] worked out at 17.4%.

B5: VH16/VL43 (antibody, human IgG1, V domains shown)
VH: QVQLVQSGGGVVQPGRSLRLSCAASGVSLPDYGVSWVRQAPGKGLEWVAVIWGSETTYYNSALKSRFTISRDNSKNTLYLQMNSLRAEDTAVYYCARHYYYGGSYAMDYWGQGTLVTVSS
VL: DIVMTQTPSSLSASVGDRVTITCRASQDISKYLNWYQQKPGKAPKLLIYHTSRLHSGVPSRFSGSGSGTDFTLTISSLQPEDFATYYCQQGNTLPYTFGPGTKVDIKR
Take B5: the “relative MPF (% of chimeric FMC63)” value with human CD19 [3] was determined as 7.42%; with human CD19 [1] it was 7.14%; with human CD19 [2] it was 7.14%; with human CD19 [5] it was 3.29%. Moreover, in the experiment with human CD19 [4], the Ki was 72.8 nM.

B6: VH5VL40 (antibody, V domains shown)
VH: EVQLVESGGGLVKPGGSLRLSCAASGVSLPDYGVSWIRQAPGKGLEWVSVIWGSETTYYNSALKSRFTISRDNAKNSLYLQMDSLRVEDTAVYYCAGHYYYGGSYAMDYWGQGTLVTVSS
VL: DIVMTQTPSSLSASVGDRVTITCRASQDISKYLNWYQQKPGKVPNLLIYHTSRLHSGVPSRFSGSGSGTEFTLTISSLQPEDFATYYCQQGNTLPYTFGGGTKVEIKR
As to B6, the binding result with human CD19 [6] is listed as “no binding (tested: about 10 ug/ml (Log(ug/ml) about 1))”.

B7: VH16 R94K VL43 F71H (antibody, human IgG1, V domains shown)
VH: QVQLVQSGGGVVQPGRSLRLSCAASGVSLPDYGVSWVRQAPGKGLEWVAVIWGSETTYYNSALKSRFTISRDNSKNTLYLQMNSLRAEDTAVYYCAKHYYYGGSYAMDYWGQGTLVTVSS
VL: DIVMTQTPSSLSASVGDRVTITCRASQDISKYLNWYQQKPGKAPKLLIYHTSRLHSGVPSRFSGSGSGTDHTLTISSLQPEDFATYYCQQGNTLPYTFGPGTKVDIK
As to B7, the binding result in the experiment with human CD19 [7] was “binds”.

B8: VH16-Q6E/VL43-V3Q/T7S (antibody, human IgG1, name in Kabat numbering, V domains shown)
VH: QVQLVESGGGVVQPGRSLRLSCAASGVSLPDYGVSWVRQAPGKGLEWVAVIWGSETTYYNSALKSRFTISRDNSKNTLYLQMNSLRAEDTAVYYCARHYYYGGSYAMDYWGQGTLVTVSS
VL: DIQMTQSPSSLSASVGDRVTITCRASQDISKYLNWYQQKPGKAPKLLIYHTSRLHSGVPSRFSGSGSGTDFTLTISSLQPEDFATYYCQQGNTLPYTFGPGTKVDIKR
notes: substitutions in Kabat numbering
Consider B8, for which the “relative MPF (% of chimeric FMC63)” value with human CD19 [2] amounted to 5.68%.

B9: VH16/VL43-V3Q/T7S (antibody, human IgG1, V domains shown)
VH: QVQLVQSGGGVVQPGRSLRLSCAASGVSLPDYGVSWVRQAPGKGLEWVAVIWGSETTYYNSALKSRFTISRDNSKNTLYLQMNSLRAEDTAVYYCARHYYYGGSYAMDYWGQGTLVTVSS
VL: DIQMTQSPSSLSASVGDRVTITCRASQDISKYLNWYQQKPGKAPKLLIYHTSRLHSGVPSRFSGSGSGTDFTLTISSLQPEDFATYYCQQGNTLPYTFGPGTKVDIKR
notes: as for B8
As for B9, the “relative MPF (% of chimeric FMC63)” value with human CD19 [2] worked out at 4.93%.

B10: VH16 R94K VL43 F71S (antibody, human IgG1, V domains shown)
VH: QVQLVQSGGGVVQPGRSLRLSCAASGVSLPDYGVSWVRQAPGKGLEWVAVIWGSETTYYNSALKSRFTISRDNSKNTLYLQMNSLRAEDTAVYYCAKHYYYGGSYAMDYWGQGTLVTVSS
VL: DIVMTQTPSSLSASVGDRVTITCRASQDISKYLNWYQQKPGKAPKLLIYHTSRLHSGVPSRFSGSGSGTDSTLTISSLQPEDFATYYCQQGNTLPYTFGPGTKVDIK
In the case of B10, the binding result with human CD19 [7] is reported as “binds”.

B11: VH16-Y32F-R94K-Y97F/VL43-V3Q-T7S-N92A (antibody, human IgG1, name in Kabat numbering, V domains shown)
VH: QVQLVQSGGGVVQPGRSLRLSCAASGVSLPDFGVSWVRQAPGKGLEWVAVIWGSETTYYNSALKSRFTISRDNSKNTLYLQMNSLRAEDTAVYYCAKHYFYGGSYAMDYWGQGTLVTVSS
VL: DIQMTQSPSSLSASVGDRVTITCRASQDISKYLNWYQQKPGKAPKLLIYHTSRLHSGVPSRFSGSGSGTDFTLTISSLQPEDFATYYCQQGATLPYTFGPGTKVDIKR
notes: as for B8
In the case of B11, the “relative MPF (% of chimeric FMC63)” value with human CD19 [3] was determined as 16.9%. Also, the affinity in the experiment with human CD19 [4] corresponds to a Ki of 49.9 nM.

B12: VH16 R94K VL43 F71T (antibody, human IgG1, V domains shown)
VH: QVQLVQSGGGVVQPGRSLRLSCAASGVSLPDYGVSWVRQAPGKGLEWVAVIWGSETTYYNSALKSRFTISRDNSKNTLYLQMNSLRAEDTAVYYCAKHYYYGGSYAMDYWGQGTLVTVSS
VL: DIVMTQTPSSLSASVGDRVTITCRASQDISKYLNWYQQKPGKAPKLLIYHTSRLHSGVPSRFSGSGSGTDTTLTISSLQPEDFATYYCQQGNTLPYTFGPGTKVDIK
In the case of B12, the binding result in the experiment with human CD19 [7] is given as “binds”.

B13: VH16 Y32F/R94K/Y97F/VL43 V3Q/T7S/Y32F/N92A (antibody, human IgG1, name in Kabat numbering, V domains shown)
VH: QVQLVQSGGGVVQPGRSLRLSCAASGVSLPDFGVSWVRQAPGKGLEWVAVIWGSETTYYNSALKSRFTISRDNSKNTLYLQMNSLRAEDTAVYYCAKHYFYGGSYAMDYWGQGTLVTVSS
VL: DIQMTQSPSSLSASVGDRVTITCRASQDISKFLNWYQQKPGKAPKLLIYHTSRLHSGVPSRFSGSGSGTDFTLTISSLQPEDFATYYCQQGATLPYTFGPGTKVDIKR
notes: as for B8
Take B13: in the experiment with human CD19 [8], the binding result is “no binding”.

B14: VH16 R94K/Y97F/VL43 V3Q/T7S/Y32F/N92A (antibody, human IgG1, name in Kabat numbering, V domains shown)
VH: QVQLVQSGGGVVQPGRSLRLSCAASGVSLPDYGVSWVRQAPGKGLEWVAVIWGSETTYYNSALKSRFTISRDNSKNTLYLQMNSLRAEDTAVYYCAKHYFYGGSYAMDYWGQGTLVTVSS
VL: DIQMTQSPSSLSASVGDRVTITCRASQDISKFLNWYQQKPGKAPKLLIYHTSRLHSGVPSRFSGSGSGTDFTLTISSLQPEDFATYYCQQGATLPYTFGPGTKVDIKR
notes: as for B8
Regarding B14, the binding result in the experiment with human CD19 [8] was “no binding”.
